These results are taken from a protein production outcome set (Wang et al. 2014).

The nature of this data set: label from the status in PepcDB records.
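Also: failed if final PepcDB status was selected cloned or expressed and not failed if soluble or beyond.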

Consider “MNRSVRLITIALLLAALASLTYAVVRPFLVSIGWAVFVSYVAWPLHAWSQRRFEGRKTLSALVTTALLGSVVLAPLIWLAVLLQGEVSELIRSLPDWLEQKPRLPDFVSHIPYFGNELQAVVDQFEDLHGLLKRHAPEWVRRLGSPVLGIMTTLVQNAAVLFMTLFTLFFLFRDGLQLATDVRRVFTRVLGERLKGYFATIEATVKAVLYGIVLTALAQGFLAGLGYWIVGVKAPIVLGIATTLIAMIPFGTPFAWGSVSIWLLLQGETWAGVSLALWGTLVISWIDNIIRPLVISSATHIPFVLVMFGVLGGLASFGFIGLVLGPVILAMALAVWREWLQQVREAGLRGEDGSGTGPGERR”, for which the protein production result is recorded as “failed”.
In the case of “MNRTAMRASQKDFENSMNQVKLLKKDPGNEVKLKLYALYKQATEGPCNMPKPGVFDLINKAKWDAWNALGSLPKEAARQNYVDLVSSLSPSLESSSQVEPGTD” it was “not failed”; in that of “MNRTMSSINVLSLPVFNRDASGYDALRRGLIPCFDAFYGTALDLIDDWRDAEKLRVLDLGAGTGLFTAMLLTRHPDAQIHLIDASEKMLEQARKRFDGNPAITYAVADMANTELGGPWDLIISALAIHHLEDIGKKHLFGEIRGALSEGGLFVNVEQVLGHDPEVEARYARTWLQQVRRLGVAEVEIAKAHERMSHDRCSPLENQLQWMRDTGFCEIDCSFKAWRFAVLSGRR”, “failed”.
Under “MNSAARNAPAGSQPVKAELWKRVYSRVGSYWKGLVLAVLLMAGAAATQPTLAVIMKPLLDDGFSGAKPHYVWFLPLAVVGLILLRGICNFFSDYLLAWVANNVLRGIRGEMFERLLGLPDADFKRGDTGRLLNRFTIDAGNVTGYATDVITVLVRETLVVIALIGVLLYMSWALTLIILVMLPVSVGIARAFTRRLRRINRETVNMNAELTRVVSEGIDGQRVIKLFDGYDAERRRFDFVNSRLRRFAMRSATADAALTPLTQVCISVAVGAVIAVALSQANSGALTVGSFASFMAALAQIFDPIKRLTNLAGKMQKMLVAAESVFTLVDQTPEADAGTRALPEPVRGKVEFRAVSHRFPDADRDTVSAVSFLVEPGQTVALVGRSGSGKTTLVNMLPRFVLPDGGDILFDDVPIQDLTLRSLRSHLSLVSQDVVLFDDTIAANVGYGAGGTVDDARVRDALAAANLLEFVDGLPLGIHTPVGQNAARLSGGQRQRLAIARALIKNAPVLILDEATSALDNESERQVQASLERLMRGRTTLVIAHRLSTVQNADRIIVLDAGKIVEHGPHSELLAANGLYASLYNMQFRED” stands “failed”; under “MNSDGSDNFELVKKSYGRNFSGISGCAWSPDGSRIAYISSDHNGSDRLVTLNPDGSNEQIVASFAEISALAWAPDSSGMAFNAAYSEDGQTGIYLADLESSEPVFLVRGEIRQQIQSWQSEVWSPDGSRILYSSNENGNSDTNENGNSDIYSVNTDGSEKIQLTDDNSKDYSPCFSPDGSKIIFISDRTGHSSIWIMSSNGDKEEELTEGFEGIHDFSWNPNGQKIAFSSDSNSYIQEIDYSESGDEDSQDDSSSDDSDNDTEVNPEYLHMEILSPDLNFAASQGTPELITVRITNNSGSPVQSSGFKFIKANFSNGDPELQLFDDGTHEDITASDGIFSNQWIPVNTTGLPLTLCILWASADHESLGDAEQIISGTISRKPIPSDLVIENISWSPADPYVNDNITFSITSANRGSGPSEACKVKCYINGNEAYSYSLPELEARSSTSIIFSWIPTAPGNIDVKAVVDEENQVSESVEENNEKSVSFSVKSLTPSTSSGKSGGKSSSSGGGGGGGGSPEPASNVRIKELSQQYITSGKYAKFAFPRNATCVTHVAFNSRRTAGKTTTIVEMLKNKSTRVPDLPAGKIYENVNIWVGNKGTADPENIENAVVGFRVEKSWITLNDVDPASVRLWRLSSGEWEELSIRQSGEDDRYSYFEAQTEGFSHFVITAPSGENETIENALKSSIVPPVRSSAEVMEELFGKLSGKQNADFPVISAMSVNESGSEPEAPSTAGHAADRITGRGIIKVLVVIALLSVTGFLGSLILRKQN”, “failed”.
In the case of “MNSEIFRIFRKKYSEEIRNPPMNATTLPEALKLMQYIGDAIGTIRDPQELFRTVTDKLRLLFAFDSAVIITIDRERREASVFFEMLRFELPEQLRHQTRSIAGTWLEGHLDDRTVTVASIARDIPSFGADGAPLLWTLHELGMRQIVLSPLRSGGRVIGFLSFVSAEEKLWSDGDKSLLSGVSSSIAIAVSNALAYEELRQRE” it was “failed”.
Turning to “MNSFAEKLMVGATAPSASVELPLGDRVRCVLVHEFLSASECEALIEATEQCGFASAGSDYPSSYRDNDRIVADDPAMAGRLFERLKHCASRMPKLGTVIDEDGWRPVGINERLRFCRYRPGTQFRAHQDGVHHRQRQQSRLTFMIYLNDDAFSGGETLFFEGRSAAMSNRDSTLRLRPRKGSLIVFDHTLWHAGALVDAGQKYVMRSDLMYEPQQSLQVDGPFQPGHRGYVWALADLGDRGFASAGRDATIRLWDHEGRCLGQLDGHTQSILGLVDVAPGELVSHSRDRTVRHWSLATGKSTLVGTSDSAVLSSARLGADRLVTGAADGCLTVWNLATGAADRRQAHACWVWAIAPTGDGSFASASEDGTVRLWQPEERDCVQVLDLGRPLRMLASWIDADGSVTLAVGDLDGAVHLLATEPRLALLDCLAAHDGPVRRVRFEARHMLLTCGEDGLVRRWNLPSRQGAIIGSHDNFATDVLPTRAGGWISCGYDGRILVHGDKG”, the protein production entry is reported as “failed”.
For the sequence “MNSFSSKNPEGCSLKVLIKYLLKLSVVPFLIGLGGFIVFVSLEILYQLSDLIVRHRVGIEKLFLMLYYYLPYFVAMGVPVGVLLAIFWTFSRLSEERELMAIQVHGISQKNLIVPFLILGALLSIAVFFLSDQIVPEYQSKAEEAMSKYVLKKPEVFVVENVISKIGDDQYFYVEKYDERTSTMWNVVIFRYGHEETIVTAKRVQKKGNDWYLFDGNYYTVDKDGFLKLDVHFSEMKLDITEDIEKLLRVGKTPKEMTGKELKEKIEFFKKVGVKPSPWVVELHSRYANSLTPIVIVLVGVPLSLLFQLRSKSWGVIFTFVLVVLYQGSGAWLSAMGKENLLNPVLAPWIPNIVFTIVGTLLFILLDTFFAYRITEFLSRLFFVAFIFTVSSLFSSQVVIVSDRMEKFPEEMVFHGSVEIAYKDMTVQASEATIQLTEEGKAKKLEASGGVIYRKADTILMGEHLIFYLENEKSVLTHIRGSTVLEIEKEKKKIYLSGEDLTSEGSRTIVDMGSISTCSETPPHYKLKARYIEIKENDYLLAKDVVFYLLEIPLFYQPIFFTSLSDKPQPFSVEVGVGNNPHLKTSYNVSYPSGLLYFSTKSVLSGGLSKELNWNHKMGSWSLNLDYKESTSHSVLVKIFDSKNTFLFSQKNEERIHQFERKEKILNGSLNVVLRKESDGEDSYILPRVTVKKVSVKTGVGTFSVDSFNHETRIEDQEKRNSGSVSLSFRSVPFLLFQSVSVSTTGKYLFENQNLDERTSYLKTDSIWDFQNLSLGKFLVLDDKIYAGVYRSNEDGYRVGNLFTTTLRVPLGPFSFESYYKLFTVSGENLRKFSQNESKNEVDLKVSFSYENFKSSLETTYDFLEKEFSDPYLKTSYSFKTGDITHTVDSTTRFVLDEISRSYTTWNFQQRMGAFLNRFYFTYYYREPHVKYVEDQMRIYGKNFLFMENPRITTYTKLSVDPFELDEFWIRGTFKKGESTHSLKMSYSSDNLEFSYQTKNGDPALEISFSLKDWNVEKFSLSVEKALHCLGTKISTSFGRNFTLESFSILFFIRDFPNSGIGFDTEEGIGLNVF”, the protein production entry is listed as “failed”.
In the case of “MNSFWLSLAPVLWLTIIAIPVGILFNAAIVFGLYSIILLGIVIYHIHTLYCLEQWLHHSDLSYATVPDRSGLWGVVFARLARFVRRHDKERLGLNTSLERLQRATSALPEGIVILGDKDQIEWCNSAAERHLGLNLEMDAGQHITRMVRQVRFVAYLDMGDFSKPFLLNQSRLRDVLLSIQIVPYGDREKLLISQDVTRFEKIEIMRRDFVANVSHELRTPLTVIGGFLETLLEENKISGEMEKNALRLMSDQAIRMRRLVEDLLTLSRLENAGNNLTEEQVDVVKLLQGLYQEAQSLSAGRHVISLNLASHAMLLGSEDELRSAFENLISNAVRYTPESGIISLNWVVENGKGLFYVQDSGIGIEPNHIPRLTERFYRVDRSRSRETGGTGLGLAIVKHVLNRHQASMEITSQPGAGSIFRIWFPSNRVLPAETAPVISSSPEHTKQNSAA” it was “failed”.
